Non-standard residues stand in square brackets, D forms with d. No end group written: not given here. Cit = NC(=O)NCCC[C@H](N)C(=O)O
What was measured:
[1] = biological target: T1, huPAD2 deiminated human recombinant histone H2A (human); assay: ELISA, 2 ug/well
T1 construct: also called H2A/p2
Protocol: (§1) CFC-1 and CFC-0 were coated at the same concentration and served as positive and negative controls, respectively, for specific anti-citrulline reactivity and as coating controls. Non-coated wells were used to test for aspecific binding of the antibodies. […] Detection of bound anti-citrulline antibodies was performed by incubating the wells with rabbit-anti-human-HRP (1:2000) for one hour at RT followed by incubation with TMB substrate. The resulting OD (y-axis) is a measure for antibody binding. H1=recombinant histone 1; H1/p2=huPAD2 recombinant histone 1; H1/p4=huPAD4 recombinant histone 1 and so forth (x-axis).

[2] = biological target: T2, huPAD4 deiminated human recombinant histone H2A (human); assay: ELISA, 2 ug/well
T2 construct: also called H2A/p4; huPAD4 deiminated histone 2A
Protocol: as §1

[3] = biological target: T3, human recombinant histone H2A (human); assay: ELISA, 2 ug/well
T3 construct: Non-deiminated
Protocol: as §1

[4] = biological target: human recombinant histone H4 (human, UniProt P62805 2-103); assay: ELISA, 2 ug/well
Protocol: as §1

[5] = biological target: T4, huPAD2 deiminated human recombinant histone H2B (human); assay: ELISA, 2 ug/well
T4 construct: also called H2B/p2
Protocol: as §1

[6] = biological target: T5, huPAD2 deiminated human recombinant histone H3 (human); assay: ELISA, 2 ug/well
T5 construct: also called H3/p2
Protocol: as §1

CFC-1 [7] = biological target: T6, CFC-1; assay: ELISA, 2 ug/well
T6 construct: Positive control for anti-citrulline reactivity; also called cfc1 XG
Protocol: as §1

[8] = biological target: T7, huPAD4 deiminated human recombinant histone H2B (human); assay: ELISA, 2 ug/well
T7 construct: also called H2B/p4
Protocol: as §1

[9] = biological target: T8, human recombinant histone H2B (human); assay: ELISA, 2 ug/well
T8 construct: Non-deiminated
Protocol: as §1

[10] = biological target: T9, huPAD4 deiminated human recombinant histone H3 (human); assay: ELISA, 2 ug/well
T9 construct: also called H3/p4
Protocol: as §1

[11] = biological target: PREDICTED: similar to 60S ribosomal protein L29 (Cell surface heparin-binding protein HIP) [Homo sapiens] (Homo sapiens); assay: IP from huPAD4 deiminated HEK293 lysate, nLC LTQ FTMS, emPAI; against RhmAb2.101
Protocol: Beads were subjected to three washes with 1 ml IPP500, one wash with 1 ml IPP150 (10 mM Tris/HC1 pH 8.0, 150 mM NaCl, 0.1% NP40 and 0.1% TWEEN®-20), and subsequently incubated at room temperature with 300 μl deiminated HEK293 lysate for two hours under constant rotation. Beads were washed three times with 1 ml of IPP150 after which a small part has been used for SDS-PAGE electrophoresis to determine if the IP procedure with the HEK293 cells was successful.
To remove PEGs from the immunoprecipitated proteins, they were loaded on a 15% SDS-PAGE gel and run shortly. […] Samples were diluted 50 fold before subjecting them to nLC LTQ FTMS ULTRA analysis.

[12] = biological target: T10, Histone 2A citrulline-containing peptide 2 (human, also: biotin label); assay: peptide ELISA, 0.016 ug/well
T10 peptide: AKAKS[Cit]SSRAGL
Protocol: as §1, with “Biotin and citrulline-containing peptides derived from histone 2A were immobilized on NEUTRAVIDIN®-coated 96-well ELISA plates (0.3 μg/well). CFC-1” for “CFC-1”, “controls respectively” for “controls, respectively,”, “binding.” for “binding. H1=recombinant histone 1; H1/p2=huPAD2 recombinant histone 1; H1/p4=huPAD4 recombinant histone 1 and so forth (x-axis).”
(§2) Ninety-six-well ELISA plates were coated with NEUTRAVIDIN® (0.1 μg/well) by overnight incubation at 4° C. Wells were washed five times with PBS-TWEEN®-20 (PBS-T) and blocked by a one-hour incubation with PBS-T+1% Bovine serum albumin (BSA) at room temperature (RT). After five more washes with PBS-T, wells were incubated for one hour at RT with histone-derived citrulline and biotin-containing peptides (0.3 μg/well). […] Wells were washed five times with PBS-T and incubated with rabbit-anti-human-HRP (1:2000) for one hour at RT followed by five washes with PBS-T and three wash steps with PBS. Wells were incubated for five minutes with TMB substrate before stopping the reaction with 2 M H₂SO₄. Optical density was measured by 450 nm and is a measure for the affinity of the antibodies used.

[13] = biological target: T11, Histone 2A citrulline-containing peptide 7 (human, also: biotin label); assay: peptide ELISA, 0.016 ug/well
T11 peptide: GNYSE[Cit]VGAGAP
Protocol: as §1, with “Biotin and citrulline-containing peptides derived from histone 2A were immobilized on NEUTRAVIDIN®-coated 96-well ELISA plates (0.3 μg/well). CFC-1” for “CFC-1”, “controls respectively” for “controls, respectively,”, “binding.” for “binding. H1=recombinant histone 1; H1/p2=huPAD2 recombinant histone 1; H1/p4=huPAD4 recombinant histone 1 and so forth (x-axis).”
as §2

[14] = biological target: T12, Histone 2A citrulline-containing peptide 9 (human, also: biotin label); assay: peptide ELISA, 0.016 ug/well
T12 peptide: DNKKT[Cit]IIPRHL
Protocol: as §1, with “Biotin and citrulline-containing peptides derived from histone 2A were immobilized on NEUTRAVIDIN®-coated 96-well ELISA plates (0.3 μg/well). CFC-1” for “CFC-1”, “controls respectively” for “controls, respectively,”, “binding.” for “binding. H1=recombinant histone 1; H1/p2=huPAD2 recombinant histone 1; H1/p4=huPAD4 recombinant histone 1 and so forth (x-axis).”
as §2

[15] = biological target: T13, Histone 2A citrulline-containing peptide 1 (human, also: biotin label); assay: peptide ELISA, 0.016 ug/well
T13 construct: also called AAASGXGKQGGK
T13 peptide: AAASG[Cit]GKQGGK
Protocol: as §1, with “Biotin and citrulline-containing peptides derived from histone 2A were immobilized on NEUTRAVIDIN®-coated 96-well ELISA plates (0.3 μg/well). CFC-1” for “CFC-1”, “controls respectively” for “controls, respectively,”, “binding.” for “binding. H1=recombinant histone 1; H1/p2=huPAD2 recombinant histone 1; H1/p4=huPAD4 recombinant histone 1 and so forth (x-axis).”
as §2

[16] = biological target: T14, Histone 2A citrulline-containing peptide 4 (human, also: biotin label); assay: peptide ELISA, 0.016 ug/well
T14 peptide: QFPVG[Cit]VHRLLR
Protocol: as §1, with “Biotin and citrulline-containing peptides derived from histone 2A were immobilized on NEUTRAVIDIN®-coated 96-well ELISA plates (0.3 μg/well). CFC-1” for “CFC-1”, “controls respectively” for “controls, respectively,”, “binding.” for “binding. H1=recombinant histone 1; H1/p2=huPAD2 recombinant histone 1; H1/p4=huPAD4 recombinant histone 1 and so forth (x-axis).”
as §2

[17] = biological target: T15, Histone 2A citrulline-containing peptide 12 (human, also: biotin label); assay: peptide ELISA, 0.016 ug/well
T15 peptide: NKLLG[Cit]VTIAQG
Protocol: as §1, with “Biotin and citrulline-containing peptides derived from histone 2A were immobilized on NEUTRAVIDIN®-coated 96-well ELISA plates (0.3 μg/well). CFC-1” for “CFC-1”, “controls respectively” for “controls, respectively,”, “binding.” for “binding. H1=recombinant histone 1; H1/p2=huPAD2 recombinant histone 1; H1/p4=huPAD4 recombinant histone 1 and so forth (x-axis).”
as §2

CFC-1 [18] = biological target: T6, CFC-1; assay: peptide ELISA, 0.016 ug/well
Protocol: as §1, with “Biotin and citrulline-containing peptides derived from histone 2A were immobilized on NEUTRAVIDIN®-coated 96-well ELISA plates (0.3 μg/well). CFC-1” for “CFC-1”, “controls respectively” for “controls, respectively,”, “binding.” for “binding. H1=recombinant histone 1; H1/p2=huPAD2 recombinant histone 1; H1/p4=huPAD4 recombinant histone 1 and so forth (x-axis).”
as §2

[19] = biological target: T16, Histone 2A citrulline-containing peptide 11 (human, also: biotin label); assay: peptide ELISA, 0.016 ug/well
T16 peptide: LQLAI[Cit]NDEELN
Protocol: as §1, with “Biotin and citrulline-containing peptides derived from histone 2A were immobilized on NEUTRAVIDIN®-coated 96-well ELISA plates (0.3 μg/well). CFC-1” for “CFC-1”, “controls respectively” for “controls, respectively,”, “binding.” for “binding. H1=recombinant histone 1; H1/p2=huPAD2 recombinant histone 1; H1/p4=huPAD4 recombinant histone 1 and so forth (x-axis).”
as §2

[20] = biological target: T17, Histone 2A citrulline-containing peptide 8 (human, also: biotin label); assay: peptide ELISA, 0.016 ug/well
T17 peptide: AGNAA[Cit]DNKKTR
Protocol: as §1, with “Biotin and citrulline-containing peptides derived from histone 2A were immobilized on NEUTRAVIDIN®-coated 96-well ELISA plates (0.3 μg/well). CFC-1” for “CFC-1”, “controls respectively” for “controls, respectively,”, “binding.” for “binding. H1=recombinant histone 1; H1/p2=huPAD2 recombinant histone 1; H1/p4=huPAD4 recombinant histone 1 and so forth (x-axis).”
as §2

[21] = biological target: T18, Histone 2A citrulline-containing peptide 3 (human, also: biotin label); assay: peptide ELISA, 0.016 ug/well
T18 peptide: KSRSS[Cit]AGLQFP
Protocol: as §1, with “Biotin and citrulline-containing peptides derived from histone 2A were immobilized on NEUTRAVIDIN®-coated 96-well ELISA plates (0.3 μg/well). CFC-1” for “CFC-1”, “controls respectively” for “controls, respectively,”, “binding.” for “binding. H1=recombinant histone 1; H1/p2=huPAD2 recombinant histone 1; H1/p4=huPAD4 recombinant histone 1 and so forth (x-axis).”
as §2

[22] = biological target: T19, Histone 2A citrulline-containing peptide 10 (human, also: biotin label); assay: peptide ELISA, 0.016 ug/well
T19 peptide: TRIIP[Cit]HLQLAI
Protocol: as §1, with “Biotin and citrulline-containing peptides derived from histone 2A were immobilized on NEUTRAVIDIN®-coated 96-well ELISA plates (0.3 μg/well). CFC-1” for “CFC-1”, “controls respectively” for “controls, respectively,”, “binding.” for “binding. H1=recombinant histone 1; H1/p2=huPAD2 recombinant histone 1; H1/p4=huPAD4 recombinant histone 1 and so forth (x-axis).”
as §2

[23] = biological target: T20, Histone 2A citrulline-containing peptide 5 (human, also: biotin label); assay: peptide ELISA, 0.016 ug/well
T20 peptide: VGRVH[Cit]LLRKGN
Protocol: as §1, with “Biotin and citrulline-containing peptides derived from histone 2A were immobilized on NEUTRAVIDIN®-coated 96-well ELISA plates (0.3 μg/well). CFC-1” for “CFC-1”, “controls respectively” for “controls, respectively,”, “binding.” for “binding. H1=recombinant histone 1; H1/p2=huPAD2 recombinant histone 1; H1/p4=huPAD4 recombinant histone 1 and so forth (x-axis).”
as §2

CFC-1 [24] = biological target: T6, CFC-1; assay: peptide ELISA, 0.4 ug/well
Protocol: Biotin and citrulline-containing peptides derived from fibrinogen and vimentin were immobilized on NEUTRAVIDIN®-coated 96-well ELISA plates (0.3 μg/well). CFC-1 and CFC-0 were coated at the same concentration and served as positive and negative controls respectively for specific anti-citrulline reactivity and as coating controls. Non-coated wells were used to test for aspecific binding of the antibodies. […] Detection of bound anti-citrulline antibodies was performed by incubating the wells with rabbit-anti-human-HRP (1:2000) for one hour at RT followed by incubation with TMB substrate. The resulting OD (y-axis) is a measure for antibody binding.
Biotin-labeled and citrulline-containing fibrinogen and vimentin peptides (Table 5) were also tested for reactivity with the therapeutic antibodies. Peptides were coated on 96-well NEUTRAVIDIN®-ELISA plates.

B1: RhmAb2.102 (antibody, human IgG1, lambda)
heavy: not shown
light: QSVLTQPPSMSAAPGQKVTISCSGSSSNIGNNYVSWYQQVPGTAPKLLIYDDNKRPSGIPGRFSGSKSATSATLGITGLQAGDEADYYCGSWDDNLSVVLFGGGTKLTVLGQPKAAPSVTLFPPSSEELQANKATLVCLISDFYPGAVTVAWKADSSPVKAGVETTTPSKQSNNKYAASSYLSLTPEQWKSHRSYSCQVTHEGSTVEKTVAPTECS
notes: Human IgG1 lambda; also called Rhm2.102
Question: For B1, which OD [1] is on record?
Answer: 3.18 OD

Question: What about the OD [2] of the same binder?
Answer: 3.13 OD

Question: And the OD [3]?
Answer: 0.115 OD

Question: What about the OD [4] of the same binder?
Answer: 0.208 OD

Question: What about the OD [5] of the same binder?
Answer: 0.086 OD

Question: And the OD [6]?
Answer: 1.94 OD

Question: And the OD (CFC-1 [7])?
Answer: 3.38 OD

Question: What about the OD [8] of the same binder?
Answer: 0.069 OD

Question: What about the OD [9] of the same binder?
Answer: 0.076 OD

Question: And the OD [10]?
Answer: 0.439 OD

Question: And the “Ratio 102/101” value [11]?
Answer: 1

Question: And the OD [12]?
Answer: 0.065 OD

Question: What about the OD [13] of the same binder?
Answer: 0.061 OD

Question: What about the OD [14] of the same binder?
Answer: 0.064 OD

Question: And the OD [15]?
Answer: 0.843 OD

Question: What about the OD [16] of the same binder?
Answer: 0.084 OD

Question: What about the OD [17] of the same binder?
Answer: 0.057 OD

Question: And the OD (CFC-1 [18])?
Answer: 1.46 OD

Question: What about the OD [19] of the same binder?
Answer: 0.069 OD

Question: And the OD [20]?
Answer: 0.063 OD

Question: What about the OD [21] of the same binder?
Answer: 0.07 OD

Question: What about the OD [22] of the same binder?
Answer: 0.066 OD

Question: And the OD [23]?
Answer: 0.065 OD

Question: And the OD (CFC-1 [24])?
Answer: 3.79 OD
